Laboratory results: patent US20040038338A1, “Influence of LRP cytoplasmic domain on Abeta production” (priority 2001, published 2004)
Entries after “also recorded” stand apart in the source; their conditions may differ.

Columns and labels:
APP-CTF = APP-CTF levels by immunoblotting (CT15) after expression of LRP-CT constructs in LRP−/− fibroblasts; type: cell-based, mouse; details: construct expressed in LRP−/− fibroblasts expressing APP751; compared to LRP± control cells
Protocol: (§1) Mouse fibroblasts deficient in LRP (LRP−/−; PEA 13) and corresponding LRP expressing control cells (LRP±; PEA 10) were obtained from American Type Culture Collection (Rockville, Md., USA) and cultured as described previously (Kang et al., 2000). LRP deficient CHO cell line (13-5-1), CHO cell line expressing a LRP trafficking mutant (14-2-1), and corresponding CHO K1 control cells (kind gift of Dr. S. Leppla) were grown in alpha DMEM supplemented with 10% fetal bovine serum (FitzGerald et al., 1995). Human APP695 and APP751 were inserted into the pBabepuro retroviral expression vector (Morgenstern and Land, 1990) and transferred into GP+E86 packaging cell line. Stable transformants were selected with puromycin (5 μg/ml). After infection with recombinant viruses, mouse fibroblasts were selected with puromycin (2.5 μg/ml)and analyzed after clonal selection for equal APP expression. […] After infection with recombinant viruses, LRP−/− mouse fibroblasts were selected with hygromycin (2.5 μg/ml) and analyzed (LRP−/−CT). […]
(§2) For detection of intracellular proteins, cell extracts were prepared using an NP40 lysis buffer. […] Western blotting was carried out with the indicated antibodies and detected by enhanced chemiluminescence (Pierce). Quantitation of the chemiluminescence signal was carried out with a CCD camera imaging system (GeneGnome, Syngene, Frederick, Md.).

APPs = APPs in medium by immunoprecipitation-western blotting, LRP−/− fibroblasts expressing LRP-CT constructs; type: cell-based, mouse; details: construct expressed in LRP−/− fibroblasts expressing APP751; compared to LRP± control cells
Protocol: as §1, §2

Aβ = Aβ ELISA of medium from LRP−/− fibroblasts expressing LRP-CT; type: cell-based, mouse; details: LRP-CT expressed in LRP−/− cells transfected with APP751; 72 hour collection; compared to LRP± cells
Protocol: Media from LRP−/−, LRP± LRP−/−CT fibroblasts was collected after an incubation period of 72 hours in serum free IS-CHO medium. Debris was removed by centrifugation (13,000 rpm for 20 min) and the supernatants were subjected to Aβ40 quantification using a standard sandwich ELISA described previously (Kang et al., 2000).

cell surface APP = assay: Cell surface APP by iodinated 1G7 antibody at 4° C.; type: cell-based, mouse; details: LRP-CT expressed in LRP−/− cells expressing APP751
Protocol: To measure APP surface expression or internalization of surface APP, iodinated 1G7 monoclonal antibody was added to the cells in triplicate exactly as described previously (Koo et al., 1996). For the measurement of cell surface APP, the iodinated antibody was added to APP transfected LRP± and LRP−/− fibroblasts at 4° C. for 30 min followed by extensive washes. Specific binding was calculated after subtraction of the radioactivity obtained from parallel cultures of untransfected LRP± and LRP−/− fibroblasts, respectively. The radioactivity was then normalized to the rate of production of APP, which was determined in parallel cultures. The latter cells were metabolically labeled as described before and immunoprecipitated with polyclonal APP antibody to the C-terminus (CT15). Immunoprecipitates were subjected to SDS-PAGE, gels were dried and the APP signal was quantified by phosphor imaging.

APP internalization = assay: Internalization of cell surface APP by iodinated 1G7 antibody at 37° C.; type: cell-based, mouse; details: LRP-CT expressed in APP751 expressing LRP−/− cells; 30 min at 37° C.; compared to LRP± cells
Protocol: To measure internalization of cell surface APP, iodinated 1G7 antibody was added to confluent cultures of LRP±, LRP−/−, or LRP−/−CT fibroblasts stably transfected with APP695 or APP751 at 37° C. for 30 min. After incubation, cells were rapidly chilled on ice, and the reaction was quenched by the addition of ice-cold binding medium. Chilled cells were extensively washed and remaining surface antibody was detached by two acid washes. The cells were then lysed and collected for analysis. Acid-labile and acid-resistant radioactivity represents the surface and internalized pools of APP, respectively. Specific binding was determined after subtraction of the radioactive counts obtained from parallel cultures of untransfected LRP± and LRP−/− fibroblasts. The ratio of acid-resistant to acid-labile counts therefore provided a measure of the internalized versus cell surface pools of APP. All experiments in this study were repeated one to three times. […]
RESULTS: An APP internalization assay was performed in LRP-deficient cells expressing either APP695 or APP751 using a protocol established in Inventors' laboratory in which iodinated APP monoclonal antibody (1G7) was added to cultured cells at 37° C. for 30 minutes [Koo E H and Squazzo S L. J. Biol. Chem. 269:17386-17389, 1994]. Internalized and cell surface APP can be rapidly determined by the acid resistant and acid labile pools, respectively. […]

[1] = system: APP processing in CHO 13-5-1 cells; assay: Transient expression of LRP-CT constructs in LRP deficient CHO 13-5-1 cells, APP-CTF and APPs by immunoblotting; type: cell-based; details: LRP−/− CHO 13-5-1 cells; compared to control levels
Protocol: as §1, §2

APP processing = assay: Restoration of APP processing in LRP deficient cells (summary statements); type: cell-based; details: construct expressed in LRP deficient cells
Aβ secretion [2] = assay: Aβ secretion from APP751-expressing CHO cells transfected with LRP-CT; type: cell-based; details: LRP-CT overexpressed in APP751-expressing CHO cells (LRP +/+)
Aβ secretion [3] = assay: Aβ secretion, transient expression of LRP-CT in human glioma cells; type: cell-based
Aβ secretion [4] = assay: Aβ secretion, transient expression of LRP-CT in N2A mouse neuroblastoma cells; type: cell-based
APP = biological target: T1, APP (Homo sapiens, UniProt P05067); assay: APP and LRP co-immunoprecipitation; type: binding; details: transfected cells
T1 construct: expressed in transfected cells

B1: LRP-CT: last 370 amino acids of the LRP β-subunit, transmembrane domain and entire cytoplasmic region, with signal peptide (protein)
chain: KRLDNGTCVPVPSPTPPPDAPRPGTCNLQCFNGGSCFLNARRQPKCRCQPRYTGDKCELDQCWEHCRNGGTCAASPSGMPTCRCPTGFTGPKCTQQVCAGYCANNSTCTVNQGNQPQCRCLPGFLGDRCQYRQCSGYCENFGTCQMAADGSRQCRCTAYFEGSRCEVNKCSRCLEGACVVNKQSGDVTCNCTDGRVAPSCLTCVGHCSNGGSCTMNSKMMPECQCPPHMTGPRCEEHVFSQQQPGHIASILIPLLLLLLLVLVAGVVFWYKRRVQGAKGFQHQRMTNGAMNVEIGNPTYKMYEGGEPDDVGGLLDADFALDPDKPTNFTNPVYATLYMGGHGSRHSLASTDEKRELLGRGPEDEIGDPLA
- levels of APP-CTF (APP-CTF): restored to levels similar to LRP± cells; also recorded: restored to control levels; also recorded: can be restored; also recorded: restored to the level seen in LRP± cells
- levels of APPs in medium (APPs secretion) (APPs): restored the levels of APPs back to the levels seen in APP751 overexpressing cells; also recorded: restored to control levels; also recorded: restores the abnormal levels of APPs; also recorded: restored to normal levels; also recorded: can be restored
- Aβ level in medium (Aβ): restored to control level present in LRP± control cells; also recorded: restored the Aβ levels back to control conditions; also recorded: can be restored
- amount of cell surface APP (cell surface APP): did not alter the amount of cell surface APP
- APP internalization from the cell surface (APP internalization): largely restored to control level; also recorded: restored to almost control levels; also recorded: can be restored; also recorded: similarly restored; also recorded: partially restored
- deficiencies in APP processing [1]: able to restore the deficiencies in APP processing in LRP−/− CHO 13-5-1 cells to control levels
- APP processing steps altered in the absence of LRP (APP processing): can be restored; also recorded: partial to full restoration
- Aβ secretion (Aβ secretion [2]): inhibited Aβ secretion; also recorded: dramatically inhibited; also recorded: reduce Aβ secretion in proportion to level of expression
- Aβ secretion (Aβ secretion [3]): likewise reduced Aβ secretion
- Aβ secretion (Aβ secretion [4]): likewise reduced Aβ secretion
- co-immunoprecipitation with APP (APP): can not only co-IP APP with LRP, but also with LRP-CT; also recorded: APP complexes with LRP-CT
